This note sets out measurements from IntAct's records for PubMed 27462807.

Test [1] concerns the target tp53b_human TP53BP1 (UniProt Q12888).
For test [2] the target is unchanged. The source holds these as a separate data set.

Sequence of tp53b_human TP53BP1 (Q12888 whole entry): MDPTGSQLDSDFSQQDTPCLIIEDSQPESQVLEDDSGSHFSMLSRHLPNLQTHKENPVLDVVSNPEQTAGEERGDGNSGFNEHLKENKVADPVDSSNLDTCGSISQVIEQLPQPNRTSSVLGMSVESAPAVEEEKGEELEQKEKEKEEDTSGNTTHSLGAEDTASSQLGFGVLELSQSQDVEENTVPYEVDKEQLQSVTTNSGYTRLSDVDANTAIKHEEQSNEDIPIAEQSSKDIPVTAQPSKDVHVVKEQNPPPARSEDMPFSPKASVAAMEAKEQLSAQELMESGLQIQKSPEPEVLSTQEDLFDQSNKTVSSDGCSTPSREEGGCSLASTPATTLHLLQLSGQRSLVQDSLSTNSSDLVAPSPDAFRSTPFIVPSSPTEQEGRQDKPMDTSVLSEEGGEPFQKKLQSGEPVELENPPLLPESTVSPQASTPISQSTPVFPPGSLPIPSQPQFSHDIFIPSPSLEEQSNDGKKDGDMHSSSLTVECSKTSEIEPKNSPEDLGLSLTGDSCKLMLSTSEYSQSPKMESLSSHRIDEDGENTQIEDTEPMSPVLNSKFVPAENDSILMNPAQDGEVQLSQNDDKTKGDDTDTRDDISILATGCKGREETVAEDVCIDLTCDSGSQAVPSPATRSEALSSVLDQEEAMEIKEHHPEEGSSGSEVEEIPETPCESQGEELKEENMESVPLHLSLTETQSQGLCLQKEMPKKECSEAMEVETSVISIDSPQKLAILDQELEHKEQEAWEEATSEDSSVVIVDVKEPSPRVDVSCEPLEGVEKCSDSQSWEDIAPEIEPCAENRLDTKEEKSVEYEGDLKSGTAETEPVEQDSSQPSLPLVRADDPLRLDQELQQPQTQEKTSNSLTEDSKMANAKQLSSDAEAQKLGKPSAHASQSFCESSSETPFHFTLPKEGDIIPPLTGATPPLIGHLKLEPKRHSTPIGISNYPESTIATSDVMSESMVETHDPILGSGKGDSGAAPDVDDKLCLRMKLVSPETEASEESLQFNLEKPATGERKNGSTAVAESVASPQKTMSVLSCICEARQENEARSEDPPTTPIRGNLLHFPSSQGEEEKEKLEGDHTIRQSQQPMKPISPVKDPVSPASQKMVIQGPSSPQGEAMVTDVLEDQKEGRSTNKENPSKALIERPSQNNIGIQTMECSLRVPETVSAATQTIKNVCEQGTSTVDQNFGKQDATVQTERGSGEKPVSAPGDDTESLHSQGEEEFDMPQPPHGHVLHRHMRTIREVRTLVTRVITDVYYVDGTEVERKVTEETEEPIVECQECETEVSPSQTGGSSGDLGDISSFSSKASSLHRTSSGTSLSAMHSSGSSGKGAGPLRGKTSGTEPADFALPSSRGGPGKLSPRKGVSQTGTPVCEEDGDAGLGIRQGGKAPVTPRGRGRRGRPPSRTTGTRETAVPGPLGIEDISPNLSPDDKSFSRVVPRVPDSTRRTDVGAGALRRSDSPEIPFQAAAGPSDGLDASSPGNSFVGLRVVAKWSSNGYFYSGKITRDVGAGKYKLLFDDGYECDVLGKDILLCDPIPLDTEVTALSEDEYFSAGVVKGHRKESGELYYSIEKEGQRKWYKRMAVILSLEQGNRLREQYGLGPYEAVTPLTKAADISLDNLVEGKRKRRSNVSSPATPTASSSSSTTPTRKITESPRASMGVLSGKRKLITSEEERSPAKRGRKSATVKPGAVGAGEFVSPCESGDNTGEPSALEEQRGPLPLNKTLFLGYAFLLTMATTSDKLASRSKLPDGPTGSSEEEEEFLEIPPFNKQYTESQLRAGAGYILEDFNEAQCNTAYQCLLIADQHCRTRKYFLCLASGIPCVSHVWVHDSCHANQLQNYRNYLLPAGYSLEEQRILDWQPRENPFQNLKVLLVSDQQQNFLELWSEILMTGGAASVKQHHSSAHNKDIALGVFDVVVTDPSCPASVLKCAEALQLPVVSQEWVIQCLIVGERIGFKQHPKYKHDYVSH

Regarding “Histone H2B type 1-C/E/F/G/I (Homo sapiens) (from UniProt P62807) E106C”, in the test with tp53b_human TP53BP1 [1], the “effect of a mutation on the interaction” value is “with no effect”. Regarding “Histone H2B type 1-C/E/F/G/I (Homo sapiens) (from UniProt P62807) N85C”, the “effect of a mutation on the interaction” value in the test with tp53b_human TP53BP1 [2] is reported as “with no effect”.
